Results taken from patent US20210403591A1 (OSSIANIX, published 2021).
Read-outs that look alike come from different tables or passages of the source.

Legend:
Experiment in all cases: SPR, His-captured TfR1
[1] = target: T1, recombinant human TfR-1, His-tagged (Sino Biological 11020-H07H) (human, UniProt P02786 89-760)
T1 construct: bought; His-tagged; also called hTfR1; hTfR-1
Description: (§1) Detailed binding kinetic analyses were performed to gain a better understanding of the relationship between affinity and brain penetration of the Clone C variants. Biacore surface plasmon resonance (SPR) analysis using immobilised mouse and human TfR-1 was performed for selected clones (Table 2).
(§2) Binding kinetics of VNAR-Fcs was determined by surface plasmon resonance (Biacore T200, GE Healthcare). CMS chips were coated with anti-His antibodies (His Capture Kit, GE Healthcare) as recommended by the manufacturer and human or mouse his-tagged TfR1 (SinoBiological) at 10 ug/mL in HBS-EP+ (GE Healthcare) was captured at flow rate 10 ul/min (contact time 120 s). […] A flow cell without TfR1 captured served as a reference. Sensorgrams were fitted and kinetic constants were determined using Biacore T200 Evaluation software. Chips were regenerated in 10 mM Glycine-HCl, pH 1.5 (contact time: 120 s at flow rate 30 ul/min).

[2] = target: T2, recombinant mouse TfR-1, His-tagged (Sino Biological 50741-M07H) (mouse, UniProt Q62351 89-763)
T2 construct: bought; His-tagged; also called mTfR1; mTfR-1
T2 sequence (Q62351 89-763 limits assumed, stated change not applied): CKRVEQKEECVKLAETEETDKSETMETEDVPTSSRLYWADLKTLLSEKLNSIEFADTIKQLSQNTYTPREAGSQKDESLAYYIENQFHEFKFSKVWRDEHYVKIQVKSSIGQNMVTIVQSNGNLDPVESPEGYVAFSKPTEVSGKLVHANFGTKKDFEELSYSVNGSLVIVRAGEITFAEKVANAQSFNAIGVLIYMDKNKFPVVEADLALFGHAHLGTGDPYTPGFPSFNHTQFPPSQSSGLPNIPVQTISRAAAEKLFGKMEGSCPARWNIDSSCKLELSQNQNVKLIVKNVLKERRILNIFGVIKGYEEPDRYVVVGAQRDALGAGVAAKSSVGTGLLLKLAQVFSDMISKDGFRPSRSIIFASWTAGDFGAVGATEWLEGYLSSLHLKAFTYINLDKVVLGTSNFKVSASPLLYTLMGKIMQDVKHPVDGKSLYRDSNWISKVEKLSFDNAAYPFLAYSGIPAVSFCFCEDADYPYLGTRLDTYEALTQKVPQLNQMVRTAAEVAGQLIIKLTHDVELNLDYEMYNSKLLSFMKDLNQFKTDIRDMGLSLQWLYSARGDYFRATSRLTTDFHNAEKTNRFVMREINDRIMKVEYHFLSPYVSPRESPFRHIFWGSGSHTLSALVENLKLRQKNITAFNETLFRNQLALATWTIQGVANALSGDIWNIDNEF
Description: as §1, §2

[3] = target: T2, recombinant mouse TfR-1, His-tagged …; remark: listed apart in the source
Description: Detailed binding kinetic analyses were performed to gain a better understanding of the relationship between affinity and brain penetration of the Clone H variants. Biacore surface plasmon resonance (SPR) analysis using immobilized mouse and human TfR-1 was performed for the clones (Table 5).
as §2

T1 sequence (P02786 89-760 limits assumed): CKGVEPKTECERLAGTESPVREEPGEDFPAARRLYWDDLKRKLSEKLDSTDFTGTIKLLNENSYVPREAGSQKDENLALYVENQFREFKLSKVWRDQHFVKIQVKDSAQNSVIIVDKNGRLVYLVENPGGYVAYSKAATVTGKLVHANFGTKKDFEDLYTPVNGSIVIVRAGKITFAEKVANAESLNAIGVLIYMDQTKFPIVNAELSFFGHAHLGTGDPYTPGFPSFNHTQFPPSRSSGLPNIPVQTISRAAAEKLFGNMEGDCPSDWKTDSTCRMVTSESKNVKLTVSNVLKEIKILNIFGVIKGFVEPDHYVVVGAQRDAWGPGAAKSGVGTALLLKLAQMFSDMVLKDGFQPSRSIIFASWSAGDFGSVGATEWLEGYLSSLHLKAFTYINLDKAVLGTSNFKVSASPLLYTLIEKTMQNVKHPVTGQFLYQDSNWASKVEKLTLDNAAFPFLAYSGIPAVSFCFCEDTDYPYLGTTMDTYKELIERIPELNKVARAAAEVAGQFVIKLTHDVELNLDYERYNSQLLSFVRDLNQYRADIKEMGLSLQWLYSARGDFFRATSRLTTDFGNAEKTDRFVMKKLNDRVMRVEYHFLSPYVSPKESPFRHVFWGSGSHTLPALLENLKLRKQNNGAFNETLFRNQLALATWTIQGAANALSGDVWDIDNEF

B1: Clone C variant 1 VNAR-hFc (Fc fusion, not shown: a dimerising Fc or GST)
chain: ARVDQTPQTITKETGESLTINCVLRDSNCALSSTYWYRKKSGSTNEENISKGGRYVETVNSGSKSFSLRINDLTVEDSGTYRCNVAQRPSYNNYFWCDVYGDGTAVTVN
- Kd [1]: 2.79 nM
- koff [1]: 0.000322 s⁻¹
- kon [1]: 115000 M⁻¹ s⁻¹
- Kd [2]: 1.45 nM
- koff [2]: 0.000154 s⁻¹
- kon [2]: 106000 M⁻¹ s⁻¹

B2: Clone C variant 2 VNAR-hFc (Fc fusion, not shown: a dimerising Fc or GST)
chain: ARVDQTPQTITKETGESLTINCVLRDSNCALSSTYWYRKKSGSTNEENISKGGRYVETVNSGSKSFSLRINDLTVEDSGTYRCNVLQRPSYNNYFWCDVYGDGTAVTVN
- Kd [1]: 49.4 nM
- koff [1]: 0.000677 s⁻¹
- kon [1]: 13700 M⁻¹ s⁻¹
- Kd [2]: 9.65 nM
- koff [2]: 0.000144 s⁻¹
- kon [2]: 14900 M⁻¹ s⁻¹

B3: Clone C variant 7 VNAR-hFc (Fc fusion, not shown: a dimerising Fc or GST)
chain: ARVDQTPQTITKETGESLTINCVLRDSNCALSSTYWYRKKSGSTNEENISKGGRYVETVNSGSKSFSLRINDLTVEDSGTYRCNVVQWPSLSSPFWCDVYGDGTAVTVN
- Kd [1]: 0.636 nM
- koff [1]: 7.02e-05 s⁻¹
- kon [1]: 110000 M⁻¹ s⁻¹
- Kd [2]: 0.286 nM
- koff [2]: 3.39e-05 s⁻¹
- kon [2]: 119000 M⁻¹ s⁻¹

B4: Clone C variant 14 VNAR-hFc (Fc fusion, not shown: a dimerising Fc or GST)
chain: ARVDQTPQTITKETGESLTINCVLRDSNCALSSTYWYRKKSGSTNEENISKGGRYVETVNSGSKSFSLRINDLTVEDSGTYRCNVVQYPQQDRPFWCDVYGDGTAVTVN
- Kd [1]: 6.34 nM
- koff [1]: 0.000156 s⁻¹
- kon [1]: 24500 M⁻¹ s⁻¹
- Kd [2]: 6.69 nM
- koff [2]: 0.000133 s⁻¹
- kon [2]: 19900 M⁻¹ s⁻¹

B5: Clone C variant 25 VNAR-hFc (Fc fusion, not shown: a dimerising Fc or GST)
chain: ARVDQTPQTITKETGESLTINCVLRDSNCALSSTYWYRKKSGSTNEENISKGGRYVETVNSGSKSFSLRINDLTVEDSGTYRCNVVQYPSYDNPFWCDVYGDGTAVTVN
- Kd [1]: 17.1 nM
- koff [1]: 0.000569 s⁻¹
- kon [1]: 33300 M⁻¹ s⁻¹

B6: Clone C variant 10 VNAR-hFc (Fc fusion, not shown: a dimerising Fc or GST)
chain: ARVDQTPQTITKETGESLTINCVLRDSNCALSSTYWYRKKSGSTNEENISKGGRYVETVNSGSKSFSLRINDLTVEDSGTYRCNVVQYPFLENYFWCDVYGDGTAVTVN
- Kd [1]: 2.79 nM
- koff [1]: 0.000389 s⁻¹
- kon [1]: 140000 M⁻¹ s⁻¹

B7: Clone C variant 12 VNAR-hFc (Fc fusion, not shown: a dimerising Fc or GST)
chain: ARVDQTPQTITKETGESLTINCVLRDSNCALSSTYWYRKKSGSTNEENISKGGRYVETVNSGSKSFSLRINDLTVEDSGTYRCNVVQYPQQDNPFWCDVYGDGTAVTVN
- Kd [1]: 0.699 nM
- koff [1]: 0.000142 s⁻¹
- kon [1]: 203000 M⁻¹ s⁻¹
- Kd [2]: 0.715 nM
- koff [2]: 0.000128 s⁻¹
- kon [2]: 179000 M⁻¹ s⁻¹

B8: Clone C variant 23 VNAR-hFc (Fc fusion, not shown: a dimerising Fc or GST)
chain: ARVDQTPQTITKETGESLTINCVLRDSNCALSSTYWYRKKSGSTNEENISKGGRYVETVNSGSKSFSLRINDLTVEDSGTYRCNVVQYPSQQNYFWCDVYGDGTAVTVN
- Kd [1]: 1.36 nM
- koff [1]: 0.000432 s⁻¹
- kon [1]: 317000 M⁻¹ s⁻¹

B9: Clone C variant 17 VNAR-hFc (Fc fusion, not shown: a dimerising Fc or GST)
chain: ARVDQTPQTITKETGESLTINCVLRDSNCALSSTYWYRKKSGSTNEENISKGGRYVETVNSGSKSFSLRINDLTVEDSGTYRCNVVQYPQYDNYFWCDVYGDGTAVTVN
- Kd [1]: 0.439 nM
- koff [1]: 8.13e-05 s⁻¹
- kon [1]: 185000 M⁻¹ s⁻¹
- Kd [2]: 0.207 nM
- koff [2]: 3.72e-05 s⁻¹
- kon [2]: 180000 M⁻¹ s⁻¹

B10: Clone C variant 21 VNAR-hFc (Fc fusion, not shown: a dimerising Fc or GST)
chain: ARVDQTPQTITKETGESLTINCVLRDSNCALSSTYWYRKKSGSTNEENISKGGRYVETVNSGSKSFSLRINDLTVEDSGTYRCNVVQYPSIFNYFWCDVYGDGTAVTVN
- Kd [1]: 4.58 nM
- koff [1]: 0.000437 s⁻¹
- kon [1]: 95500 M⁻¹ s⁻¹

B11: Clone C variant 22 VNAR-hFc (Fc fusion, not shown: a dimerising Fc or GST)
chain: ARVDQTPQTITKETGESLTINCVLRDSNCALSSTYWYRKKSGSTNEENISKGGRYVETVNSGSKSFSLRINDLTVEDSGTYRCNVVQYPSNNNYFWCDVYGDGTAVTVN
- Kd [1]: 8.44 nM
- koff [1]: 0.000627 s⁻¹
- kon [1]: 74200 M⁻¹ s⁻¹

B12: Clone C variant 9 VNAR-hFc (Fc fusion, not shown: a dimerising Fc or GST)
chain: ARVDQTPQTITKETGESLTINCVLRDSNCALSSTYWYRKKSGSTNEENISKGGRYVETVNSGSKSFSLRINDLTVEDSGTYRCNVVQWPTLSSPFWCDVYGDGTAVTVN
- Kd [1]: 26.5 nM
- koff [1]: 0.000754 s⁻¹
- kon [1]: 28500 M⁻¹ s⁻¹
- Kd [2]: 2.43 nM
- koff [2]: 9.32e-05 s⁻¹
- kon [2]: 38300 M⁻¹ s⁻¹

B13: Clone C variant 24 VNAR-hFc (Fc fusion, not shown: a dimerising Fc or GST)
chain: ARVDQTPQTITKETGESLTINCVLRDSNCALSSTYWYRKKSGSTNEENISKGGRYVETVNSGSKSFSLRINDLTVEDSGTYRCNVVQYPSWDNYFWCDVYGDGTAVTVN
- Kd [1]: 2.19 nM
- koff [1]: 0.000194 s⁻¹
- kon [1]: 88800 M⁻¹ s⁻¹

B14: Clone C variant 8 VNAR-hFc (Fc fusion, not shown: a dimerising Fc or GST)
chain: ARVDQTPQTITKETGESLTINCVLRDSNCALSSTYWYRKKSGSTNEENISKGGRYVETVNSGSKSFSLRINDLTVEDSGTYRCNVVQWPSYNNYFWCDVYGDGTAVTVN
- Kd [1]: 4.5 nM
- koff [1]: 0.000519 s⁻¹
- kon [1]: 115000 M⁻¹ s⁻¹
- Kd [2]: 6.81 nM
- koff [2]: 0.000432 s⁻¹
- kon [2]: 63500 M⁻¹ s⁻¹

B15: Clone C variant 5 VNAR-hFc (Fc fusion, not shown: a dimerising Fc or GST)
chain: ARVDQTPQTITKETGESLTINCVLRDSNCALSSTYWYRKKSGSTNEENISKGGRYVETVNSGSKSFSLRINDLTVEDSGTYRCNVVQSPSYNNYFWCDVYGDGTAVTVN
- Kd [1]: 0.733 nM
- koff [1]: 0.000302 s⁻¹
- kon [1]: 411000 M⁻¹ s⁻¹
- Kd [2]: 0.486 nM
- koff [2]: 0.000135 s⁻¹
- kon [2]: 278000 M⁻¹ s⁻¹

B16: Clone C variant 11 VNAR-hFc (Fc fusion, not shown: a dimerising Fc or GST)
chain: ARVDQTPQTITKETGESLTINCVLRDSNCALSSTYWYRKKSGSTNEENISKGGRYVETVNSGSKSFSLRINDLTVEDSGTYRCNVVQYPHYNNYFWCDVYGDGTAVTVN
- Kd [1]: 0.472 nM
- koff [1]: 9.01e-05 s⁻¹
- kon [1]: 191000 M⁻¹ s⁻¹
- Kd [2]: 0.291 nM
- koff [2]: 5.17e-05 s⁻¹
- kon [2]: 177000 M⁻¹ s⁻¹

B17: Clone C variant 20 VNAR-hFc (Fc fusion, not shown: a dimerising Fc or GST)
chain: ARVDQTPQTITKETGESLTINCVLRDSNCALSSTYWYRKKSGSTNEENISKGGRYVETVNSGSKSFSLRINDLTVEDSGTYRCNVVQYPSHNNYFWCDVYGDGTAVTVN
- Kd [1]: 5.61 nM
- koff [1]: 0.000291 s⁻¹
- kon [1]: 51900 M⁻¹ s⁻¹
- Kd [2]: 2.06 nM
- koff [2]: 0.000103 s⁻¹
- kon [2]: 50100 M⁻¹ s⁻¹

B18: Clone C variant 3 VNAR-hFc (Fc fusion, not shown: a dimerising Fc or GST)
chain: ARVDQTPQTITKETGESLTINCVLRDSNCALSSTYWYRKKSGSTNEENISKGGRYVETVNSGSKSFSLRINDLTVEDSGTYRCNVVQHPSYNNYFWCDVYGDGTAVTVN
- Kd [1]: 0.311 nM
- koff [1]: 0.000119 s⁻¹
- kon [1]: 381000 M⁻¹ s⁻¹
- Kd [2]: 0.72 nM
- koff [2]: 0.000256 s⁻¹
- kon [2]: 355000 M⁻¹ s⁻¹

B19: Clone C variant 4 VNAR-hFc (Fc fusion, not shown: a dimerising Fc or GST)
chain: ARVDQTPQTITKETGESLTINCVLRDSNCALSSTYWYRKKSGSTNEENISKGGRYVETVNSGSKSFSLRINDLTVEDSGTYRCNVVQRPSYNNYFWCDVYGDGTAVTVN
- Kd [1]: 9.21 nM
- koff [1]: 0.000325 s⁻¹
- kon [1]: 35200 M⁻¹ s⁻¹
- Kd [2]: 2.34 nM
- koff [2]: 8.76e-05 s⁻¹
- kon [2]: 37400 M⁻¹ s⁻¹

B20: Clone C variant 19 VNAR-hFc (Fc fusion, not shown: a dimerising Fc or GST)
chain: ARVDQTPQTITKETGESLTINCVLRDSNCALSSTYWYRKKSGSTNEENISKGGRYVETVNSGSKSFSLRINDLTVEDSGTYRCNVVQYPRTNNYFWCDVYGDGTAVTVN
- Kd [1]: 0.454 nM
- koff [1]: 0.000109 s⁻¹
- kon [1]: 239000 M⁻¹ s⁻¹
- Kd [2]: 1.33 nM
- koff [2]: 0.000287 s⁻¹
- kon [2]: 216000 M⁻¹ s⁻¹

B21: Clone C variant 15 VNAR-hFc (Fc fusion, not shown: a dimerising Fc or GST)
chain: ARVDQTPQTITKETGESLTINCVLRDSNCALSSTYWYRKKSGSTNEENISKGGRYVETVNSGSKSFSLRINDLTVEDSGTYRCNVVQYPQQPNYFWCDVYGDGTAVTVN
- Kd [1]: 0.248 nM
- koff [1]: 5.78e-05 s⁻¹
- kon [1]: 233000 M⁻¹ s⁻¹
- Kd [2]: 0.0902 nM
- koff [2]: 2.52e-05 s⁻¹
- kon [2]: 279000 M⁻¹ s⁻¹

B22: Clone C variant 6 VNAR-hFc (Fc fusion, not shown: a dimerising Fc or GST)
chain: ARVDQTPQTITKETGESLTINCVLRDSNCALSSTYWYRKKSGSTNEENISKGGRYVETVNSGSKSFSLRINDLTVEDSGTYRCNVVQWPSIQSPFWCDVYGDGTAVTVN
- Kd [1]: 19.3 nM
- koff [1]: 0.000955 s⁻¹
- kon [1]: 49500 M⁻¹ s⁻¹

B23: Clone H variant 5 VNAR-hFc (Fc fusion, not shown: a dimerising Fc or GST)
chain: ARVDQTPQTITKETGESLTINCVLRDSNCELSSTYWYRKKSGSTNEESISKGGRYVETVNSGSKSFSLRINDLVVEDSGTYRCNVQQFPNRWNGRYWCDVYGGGTAVTVNA
- Kd [3]: 11 nM
- koff [3]: 0.000369 s⁻¹
- kon [3]: 33700 M⁻¹ s⁻¹

B24: Clone H variant 6 VNAR-hFc (Fc fusion, not shown: a dimerising Fc or GST)
chain: ARVDQTPQTITKETGESLTINCVLRDSNCELSSTYWYRKKSGSTNEESISKGGRYVETVNSGSKSFSLRINDLVVEDSGTYRCNVQQFPSRNNGRYWCDVYGGGTAVTVNA
- Kd [3]: 16.5 nM
- koff [3]: 0.000417 s⁻¹
- kon [3]: 25300 M⁻¹ s⁻¹
